Measurements reported in US8357523B2, “Beta-glucosidase variant enzymes and related polynucleotides” (Codexis, Inc., priority 2009, dated 2013).

Tests used:
Assay type in all cases: biochemical
[1] = Glucose inhibition (glucose tolerance), cellobiose assay with cellobiose consumption determined by HPLC; conditions: pH 5, 55° C.; glucose concentration at which enzyme activity is 50% of the activity with no glucose
[2] = pNPG (p-nitrophenyl-β-D-glucopyranoside) assay of β-glucosidase activity; conditions: media supernatant of shake flask culture
Experimental: A single microbial colony of Bacillus megaterium containing the vector prepared in Example 1 with the CelA gene was inoculated into 3 ml Luria-Bertani (LB) Broth ([…]) containing 10 μg/mL tetracycline. Cells were grown overnight (at least 16 hrs) in an incubator at 37° C. with shaking at 250 rpm. […]
A colorimetric pNPG (p-nitrophenyl-(β-D-glucopyranoside)-based assay was used for measuring β-glucosidase activity. In a total volume of 100 μL, 20 μL clear media supernatant containing β-glucosidase enzyme was added to 4 mM pNPG (Sigma-Aldrich, Inc. St. Louis, Mo.) solution in 50 mM sodium phosphate buffer at pH6.5. The reactions were incubated at pH 6.5, 45° C. for 1 hour. The reaction mixture was quenched with 100 μL of 1M sodium carbonate pH 11 solution. The absorbance of the solution was measured at 405 nm to determine the conversion of pNPG to p-nitrophenol. The release of p-nitrophenol (ε=17,700 M−1 cm−1) was measured at 405 nm to calculate β-glucosidase activity. […]

[3] = Enzyme stability: residual activity on pNPG after pre-incubation at high temperature and low pH; conditions: residual activity on pNPG at pH 7, 30° C.
Experimental: Residual activity is determined by exposing the enzyme to stress conditions of elevated temperature for a period of time and then determining the β-glucosidase activity. The β-glucosidase activity of the enzyme exposed to stress conditions (“a”) is compared to that of a control in which the enzyme is not exposed to the stress conditions (“b”), and residual activity is equal to the ratio a/b. Exemplary conditions for determining thermostability are provided in Examples 9 and 13. In one embodiment the enzymes are exposed to stress conditions of 50° C. at pH 5.5 or 55° C. at pH 5.0 or 55° C. at pH 5.5, or 65° C. at pH 5.0 for about 1 hour, and assayed at 30° C., pH 7, for about 0.1 hour.
A colorimetric pNPG (p-nitrophenyl-(β-D-glucopyranoside)-based assay was used for measuring β-glucosidase activity. In a total volume of 100 μL, 20 μL clear media supernatant containing β-glucosidase enzyme was added to 4 mM pNPG (Sigma-Aldrich, Inc. St. Louis, Mo.) solution in 50 mM sodium phosphate buffer at pH6.5. The reactions were incubated at pH 6.5, 45° C. for 1 hour. The reaction mixture was quenched with 100 μL of 1M sodium carbonate pH 11 solution. The absorbance of the solution was measured at 405 nm to determine the conversion of pNPG to p-nitrophenol. The release of p-nitrophenol (ε=17,700 M−1 cm−1) was measured at 405 nm to calculate β-glucosidase activity. Detectable β-glucosidase activity was observed under high throughput screening conditions (pH 7, 50° C.).
Four CelA variants and wildtype CelA were characterized to determine their stabilities at high temperature (55° C.) and low pH (pH5.5) using the method of Example 5A. The samples containing various CelA variant enzymes were pre-incubated at pH 5.5, 55° C. for 0-6 hrs. The residual enzyme activity after the thermal challenge was measured using pNPG as substrate at pH 7, 30° C. for 1 hr. […] The mutations listed in the table are indicated relative to SEQ ID NO: 4, the wildtype CelA. These sequences included residues GTS prior to the N-terminus of SEQ ID NO: 4 (prepared as described in Example 1). […]

[4] = Activity profile at different temperatures and pH using cellobiose (10 g/L) as substrate
Experimental: β-glucosidase activity was also determined using a cellobiose assay, which used cellobiose as substrate. In a total volume of 100 μL, 25 μL clear media supernatant containing CelA enzyme was added to 10 g/L cellobiose (Fluka Cat. No. 22150, Sigma-Aldrich, Inc., St. Louis, Mo.) in 100 mM sodium phosphate buffer (pH 6-7) or sodium acetate buffer (pH 5-5.5). The reaction was incubated at 45-70° C. for an appropriate time (25 minutes to overnight depending on the enzyme concentration) while shaking. Glucose production was determined using an enzymatic glucose assay (K-GLUC, Megazyme, Ireland). 10 μl of each reaction was added to 190 μl GOPOD reagent (supplied as part of the K-GLUC assay kit). The reaction was incubated at 45° C. for 20 minutes and the absorbance of the solution was measured at 510 nm. The GOPOD reagent contains 50 mM Potassium phosphate buffer pH7.4, 0.011M p-hydroxybenzoic acid, 0.008% w/v sodium azide, glucose oxidase (>12,000 U/L), peroxidase (>650 U/L) and 80 mg/L 4-aminoantipyrine. The glucose oxidase enzyme in the reagent reacts with any glucose present in the sample and produces hydrogen peroxide which then reacts with the 4-aminoantipyrine to produce a quinoneimine dye in quantities proportionate with the amount of glucose present and can be measured spectrophotometrically at 510 nm. Detectable β-glucosidase activity was observed under high throughput screening conditions (i.e., pH 7, 50° C.).
The native CelA activity profile was investigated at different temperatures (40-55° C.) and pH (5.0-8.0) using cellobiose (10 g/L) as a substrate. The experimental and analytical procedures are described in Example 5.
The activity profiles for Variant Nos. 264, 366, 391, 463, and 529 were determined at different temperatures and pH using cellobiose (10 g/L) as a substrate. The experimental and analytical procedures are described in Example 5, incubating the variant with cellobiose at temperatures in the range of 45-80. The results are depicted in FIGS. 7-11. […] The temperature and pH profile for this variant is depicted in FIG. 7. […] The temperature and pH profile for this variant is depicted in FIG. 8. […] The temperature and pH profile for this variant is depicted in FIG. 9. […] (with the pH 6 optimum determined by extrapolation). The temperature and pH profile for this variant is depicted in FIG. 10. […] The temperature and pH profile for this variant is depicted in FIG. 11.

[5] = as above; remark: listed apart in the source

Molecule	IC50 for glucose [1]	activity using pNPG as substrate [2]	% residual activity after 10 mins @ pH 5.5, 55° C. ([3]; pre-incubation 10 mins at pH 5.5, 55° C., 1 hr) [%]	% residual activity after 1 hour @ pH 5.5, 55° C. ([3]; pre-incubation 1 hour at pH 5.5, 55° C.) [%]	% residual activity after 6 hours @ pH 5.5, 55° C. ([3]; pre-incubation 6 hours at pH 5.5, 55° C., 1 hr) [%]	pH of optimum activity [4] [pH]	temperature of optimum activity [4] [°C]	CelA activity at pH 4 and 70° C. [5]
T2A + A5T + I14M + N79D + G127N + A143M + H145R + V159E + A198S + A207F + F211Y + I222A + S225C + Q508R + A3R + S73A + V177P + I2037-des[A647-L663] (protein) SARITQEGAAPAAMLHPEKWPRPATQRLIDPAVEKRVDALLKQLSVEEKVGQVIQGDIGTITPEDLRKYPLGAILAGGDSGPNGDDRAPPKEWLDLADAFYRVSLEKRPGHTPIPVLFGIDAVHGHNNIGSATIFPHNIALGMTRDPELLRRIGEVTAEEMAATGIDWTFAPALSVPRDDRWGRTYEGFSEDPEIVASYSAAYVEGFQGKYGSKDFMAPGRAVACAKHFLADGGTDQGRDQGDARISEDELIRIHNAGYPPAIDAGVLTVMASFSSWQGIKHHGHKQLLTDVLKGQMGFNGFIVGDWNAHDQVPGCTKFNCPTSLIAGLDMYMAADSWKQLYENTLAQVKDGTIPMARLDDAVRRILRVKVLAGLFEKPAPKDRPGLPGLETLGSPEHRAVGREAVRKSLVLLKNDKGTLPLSPKARVLVAGDGADNIGKQSGGWTISWQGTGNRNDEFPGATSILGGIRDAVADAGGSVEFDVAGQYKTKPDVAIVVFGEEPYAEFRGDVETLEYQPDQKQDLTLLKKLKDQGIPVVAVFLSGRPMWVNPELNASDAFVAAWLPGTEGGGVADVLFTDKAGKVQHDFAGKLSYSWPRTAAQTTVNRGDADYNPLFAYGYGLTYKDKSKVGTLPEESGVPAEARQN	greater than 100 g/l	–	–	–	–	–	–	–
CelA wildtype: wildtype Azospirillum irakense β-glucosidase (CelA) (SEQ ID NO: 4) (protein) STAIAQEGAAPAAILHPEKWPRPATQRLIDPAVEKRVDALLKQLSVEEKVGQVIQGDIGTITPEDLRKYPLGSILAGGNSGPNGDDRAPPKEWLDLADAFYRVSLEKRPGHTPIPVLFGIDAVHGHGNIGSATIFPHNIALGATHDPELLRRIGEVTAVEMAATGIDWTFAPALSVVRDDRWGRTYEGFSEDPEIVAAYSAAIVEGVQGKFGSKDFMAPGRIVASAKHFLADGGTDQGRDQGDARISEDELIRIHNAGYPPAIDAGVLTVMASFSSWQGIKHHGHKQLLTDVLKGQMGFNGFIVGDWNAHDQVPGCTKFNCPTSLIAGLDMYMAADSWKQLYENTLAQVKDGTIPMARLDDAVRRILRVKVLAGLFEKPAPKDRPGLPGLETLGSPEHRAVGREAVRKSLVLLKNDKGTLPLSPKARVLVAGDGADNIGKQSGGWTISWQGTGNRNDEFPGATSILGGIRDAVADAGGSVEFDVAGQYKTKPDVAIVVFGEEPYAEFQGDVETLEYQPDQKQDLALLKKLKDQGIPVVAVFLSGRPMWVNPELNASDAFVAAWLPGTEGGGVADVLFTDKAGKVQHDFAGKLSYSWPRTAAQTTVNRGDADYNPLFAYGYGLTYKDKSKVGTLPEESGVPAEARQNAGIYFRAGALRLPGRFL	–	confirmed	0	0	0	6.0	47	detectable
